Measurements from the supplement of paper PMC9112550, “Optimization of the antimicrobial peptide Bac7 by deep mutational scanning” (BMC Biology, 2022).

System: Escherichia coli TOP10
Test: shrunken log2 fold change of peptide-encoding DNA abundance (4.5 h post-induction vs induction); higher = less antimicrobial activity (less host growth inhibition)
Details: time post-induction: 4.5 h; library: site-saturation at positions 5, 18, 19, 20
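Also: peptides expressed intracellularly from a pBAD plasmid library in pooled LB shake-flask culture, induced with 0.3% L-arabinose, DNA abundance read by NGS, three biological replicates, DESeq2 with apeglm shrinkage.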

| Sequence | shrunken log2 fold change |
| --- | --- |
| RRIRSRPPRLPRPRPRPQQVPRP | 0.0131 |
| RRIRLRPPRLPRPRPRPQFQPRP | -0.0476 |
| RRIRTRPPRLPRPRPRPYFPPRP | -0.995 |
| RRIRQRPPRLPRPRPRPVEEPRP | -0.0284 |
| RRIRQRPPRLPRPRPRPAWHPRP | 0.0212 |
| RRIRHRPPRLPRPRPRPHGLPRP | 0.15 |
| RRIRERPPRLPRPRPRPSQMPRP | 0.0681 |
| RRIRMRPPRLPRPRPRPQLMPRP | 0.0471 |
| RRIRERPPRLPRPRPRPCYCPRP | -0.539 |
| RRIRPRPPRLPRPRPRPCKLPRP | -0.609 |
| RRIRCRPPRLPRPRPRPTPKPRP | 0.877 |
| RRIRQRPPRLPRPRPRPYQNPRP | -0.816 |
| RRIRERPPRLPRPRPRPKWYPRP | -0.175 |
| RRIRARPPRLPRPRPRPFKQPRP | 0.123 |
| RRIRDRPPRLPRPRPRPVILPRP | -0.146 |
| RRIRDRPPRLPRPRPRPGIQPRP | -0.148 |
| RRIRMRPPRLPRPRPRPNEYPRP | -0.0432 |
| RRIRLRPPRLPRPRPRPHIAPRP | -0.205 |
| RRIRCRPPRLPRPRPRPIWRPRP | 0.285 |
| RRIRKRPPRLPRPRPRPKEAPRP | 0.334 |
| RRIRLRPPRLPRPRPRPGSGPRP | 0.337 |
| RRIRSRPPRLPRPRPRPLRMPRP | 0.0358 |
| RRIRQRPPRLPRPRPRPPMQPRP | -0.055 |
| RRIRYRPPRLPRPRPRPCPSPRP | 0.109 |
| RRIRRRPPRLPRPRPRPVFPPRP | 0.488 |

| Sequence | shrunken log2 fold change |
| --- | --- |
| RRIRKRPPRLPRPRPRPHEIPRP | 0.704 |
| RRIRPRPPRLPRPRPRPRNRPRP | 0.516 |
| RRIRNRPPRLPRPRPRPEHCPRP | -0.0139 |
| RRIRIRPPRLPRPRPRPPDTPRP | -0.116 |
| RRIRARPPRLPRPRPRPYHIPRP | -0.356 |
| RRIRPRPPRLPRPRPRPSYTPRP | -0.868 |
| RRIRPRPPRLPRPRPRPVQHPRP | 0.278 |
| RRIRWRPPRLPRPRPRPDFMPRP | -0.015 |
| RRIRFRPPRLPRPRPRPGPLPRP | 0.262 |
| RRIRCRPPRLPRPRPRPDMHPRP | 0.0405 |
| RRIRRRPPRLPRPRPRPQNCPRP | -0.275 |
| RRIRDRPPRLPRPRPRPDGYPRP | -0.0204 |
| RRIRIRPPRLPRPRPRPKWTPRP | -0.116 |
| RRIRVRPPRLPRPRPRPPFSPRP | 0.15 |
| RRIRNRPPRLPRPRPRPWLLPRP | -0.436 |
| RRIRFRPPRLPRPRPRPLCLPRP | -0.431 |
| RRIRVRPPRLPRPRPRPVWWPRP | -0.0476 |
| RRIRQRPPRLPRPRPRPASRPRP | -0.124 |
| RRIRNRPPRLPRPRPRPVTEPRP | -0.0551 |
| RRIRYRPPRLPRPRPRPEENPRP | -0.0116 |
| RRIRPRPPRLPRPRPRPWHSPRP | -0.134 |
| RRIRYRPPRLPRPRPRPSQMPRP | -0.706 |
| RRIRVRPPRLPRPRPRPMVRPRP | 0.00709 |
| RRIRYRPPRLPRPRPRPTGHPRP | 0.0155 |
| RRIRFRPPRLPRPRPRPSKDPRP | -0.347 |

| Sequence | shrunken log2 fold change |
| --- | --- |
| RRIRDRPPRLPRPRPRPRWEPRP | -0.0171 |
| RRIRVRPPRLPRPRPRPTPRPRP | 0.859 |
| RRIRQRPPRLPRPRPRPLCEPRP | -0.0868 |
| RRIRRRPPRLPRPRPRPHPTPRP | 0.563 |
| RRIRQRPPRLPRPRPRPQDEPRP | 0.104 |
| RRIRYRPPRLPRPRPRPRDRPRP | -0.116 |
| RRIRPRPPRLPRPRPRPEAVPRP | 0.216 |
| RRIRSRPPRLPRPRPRPSSKPRP | -0.219 |
| RRIRKRPPRLPRPRPRPLDCPRP | -0.0764 |
| RRIRSRPPRLPRPRPRPPCHPRP | -0.0302 |
| RRIRKRPPRLPRPRPRPQCHPRP | 0.273 |
| RRIRMRPPRLPRPRPRPGTAPRP | 0.793 |
| RRIRNRPPRLPRPRPRPWLDPRP | -0.029 |
| RRIRHRPPRLPRPRPRPGITPRP | -0.453 |
| RRIRFRPPRLPRPRPRPTTAPRP | 0.297 |
| RRIRDRPPRLPRPRPRPLQYPRP | -0.373 |
| RRIRLRPPRLPRPRPRPNDWPRP | -0.261 |
| RRIRIRPPRLPRPRPRPDAGPRP | 0.158 |
| RRIRARPPRLPRPRPRPGGYPRP | 0.116 |
| RRIRDRPPRLPRPRPRPVGMPRP | 0.37 |
| RRIRPRPPRLPRPRPRPYGTPRP | -0.732 |
| RRIRFRPPRLPRPRPRPEQIPRP | 0.131 |
| RRIRMRPPRLPRPRPRPWYCPRP | -0.336 |
| RRIRPRPPRLPRPRPRPHGKPRP | 0.0675 |
| RRIRYRPPRLPRPRPRPNYDPRP | -0.746 |

| Sequence | shrunken log2 fold change |
| --- | --- |
| RRIRFRPPRLPRPRPRPSIFPRP | -0.579 |
| RRIRPRPPRLPRPRPRPGKTPRP | 0.294 |
| RRIRMRPPRLPRPRPRPRTHPRP | 0.28 |
| RRIRSRPPRLPRPRPRPWEDPRP | -0.0124 |
| RRIRKRPPRLPRPRPRPPIFPRP | 0.269 |
| RRIRYRPPRLPRPRPRPPDRPRP | 0.118 |
| RRIRSRPPRLPRPRPRPQWIPRP | -0.425 |
| RRIRYRPPRLPRPRPRPVVPPRP | -0.0502 |
| RRIRYRPPRLPRPRPRPPVCPRP | 0.065 |
| RRIRYRPPRLPRPRPRPGCLPRP | 1.79 |
| RRIRTRPPRLPRPRPRPQAHPRP | -0.452 |
| RRIRIRPPRLPRPRPRPKLHPRP | -0.0109 |
| RRIRPRPPRLPRPRPRPKCEPRP | -0.187 |
| RRIRWRPPRLPRPRPRPLPYPRP | -0.192 |
| RRIRIRPPRLPRPRPRPCRHPRP | -0.159 |
| RRIRYRPPRLPRPRPRPWGAPRP | -0.315 |
| RRIRNRPPRLPRPRPRPLMCPRP | 0.141 |
| RRIRARPPRLPRPRPRPQVKPRP | 0.136 |
| RRIRQRPPRLPRPRPRPLADPRP | 0.194 |
| RRIRNRPPRLPRPRPRPLSPPRP | -0.215 |
| RRIRARPPRLPRPRPRPWSPPRP | 0.138 |
| RRIRYRPPRLPRPRPRPQADPRP | -0.323 |
| RRIRFRPPRLPRPRPRPGVRPRP | -0.118 |
| RRIRDRPPRLPRPRPRPLAFPRP | 0.334 |
| RRIRCRPPRLPRPRPRPNCRPRP | -0.00263 |

| Sequence | shrunken log2 fold change |
| --- | --- |
| RRIRTRPPRLPRPRPRPMYQPRP | -0.416 |
| RRIRYRPPRLPRPRPRPRPRPRP | 0.463 |
| RRIRCRPPRLPRPRPRPQEYPRP | -0.399 |
| RRIRRRPPRLPRPRPRPYEYPRP | -0.206 |
| RRIRNRPPRLPRPRPRPWCDPRP | -0.365 |
| RRIRVRPPRLPRPRPRPDQTPRP | -0.002 |
| RRIRIRPPRLPRPRPRPCHAPRP | -0.618 |
| RRIRQRPPRLPRPRPRPPPVPRP | 0.607 |
| RRIRWRPPRLPRPRPRPWDPPRP | -0.101 |
| RRIRPRPPRLPRPRPRPTCDPRP | 0.052 |
| RRIRVRPPRLPRPRPRPHVPPRP | -0.044 |
| RRIRARPPRLPRPRPRPRIRPRP | 0.322 |
| RRIRARPPRLPRPRPRPHTQPRP | -0.0761 |
| RRIRKRPPRLPRPRPRPFFYPRP | 0.0957 |
| RRIRMRPPRLPRPRPRPDSHPRP | -0.025 |
| RRIRMRPPRLPRPRPRPCKTPRP | -0.00146 |
| RRIRMRPPRLPRPRPRPQEYPRP | -0.0485 |
| RRIRHRPPRLPRPRPRPSSTPRP | -0.741 |
| RRIRARPPRLPRPRPRPAWMPRP | -0.00906 |
| RRIRMRPPRLPRPRPRPPSSPRP | -0.0366 |
| RRIRWRPPRLPRPRPRPSACPRP | 0.382 |
| RRIRSRPPRLPRPRPRPCQYPRP | 0.0376 |
| RRIRNRPPRLPRPRPRPKKFPRP | -0.0756 |
| RRIRQRPPRLPRPRPRPDANPRP | 0.0607 |
| RRIRPRPPRLPRPRPRPTPEPRP | 0.277 |

| Sequence | shrunken log2 fold change |
| --- | --- |
| RRIRCRPPRLPRPRPRPQDHPRP | -0.226 |
| RRIRIRPPRLPRPRPRPEVFPRP | -0.202 |
| RRIRTRPPRLPRPRPRPLPDPRP | -0.0997 |
| RRIRPRPPRLPRPRPRPSMGPRP | -0.156 |
| RRIRYRPPRLPRPRPRPPALPRP | -0.1 |
| RRIRMRPPRLPRPRPRPSVMPRP | -0.194 |
| RRIRPRPPRLPRPRPRPMELPRP | -0.00106 |
| RRIRKRPPRLPRPRPRPFKDPRP | -0.0776 |
| RRIRVRPPRLPRPRPRPMMYPRP | 0.00519 |
| RRIRCRPPRLPRPRPRPHDIPRP | -0.00735 |
| RRIRWRPPRLPRPRPRPALMPRP | 0.159 |
| RRIRQRPPRLPRPRPRPCLWPRP | -0.162 |
| RRIRYRPPRLPRPRPRPRGIPRP | -0.0542 |
| RRIRARPPRLPRPRPRPPLKPRP | 0.33 |
| RRIRQRPPRLPRPRPRPHQLPRP | 0.142 |
| RRIRMRPPRLPRPRPRPVKWPRP | 0.0346 |
| RRIRERPPRLPRPRPRPAKMPRP | -0.194 |
| RRIRIRPPRLPRPRPRPIDCPRP | -0.145 |
| RRIRERPPRLPRPRPRPQWMPRP | 0.0273 |
| RRIRPRPPRLPRPRPRPGNMPRP | -0.119 |
| RRIRGRPPRLPRPRPRPSGLPRP | 0.3 |
| RRIRFRPPRLPRPRPRPNSFPRP | -0.894 |
| RRIRTRPPRLPRPRPRPCGHPRP | -0.14 |
| RRIRLRPPRLPRPRPRPTCMPRP | -0.228 |
| RRIRSRPPRLPRPRPRPIGCPRP | -0.144 |
